For this assay, the target named is T1, vimentin coil 2 (purified fragment).
T1 construct: vimentin, coil 2 fragment, purified; PDB 3TRT was used only for docking; also called second coil of vimentin; source: purified
Briefly: ELISA; competition enzyme immunoassay: vimentin coil 2 coated on the plate (15 µg/mL); hGIIA 100 ng/mL in PBS with 0.1% BSA mixed with c2 0.1-100 µM in DMSO, 37 °C, 2 h; detected with 4A1-alkaline phosphatase. Conditions: both partners purified. (In general: In an ELISA, binding on a coated surface is turned into a signal by an enzyme label.)

Square brackets hold non-standard residues; d marks the D form. 2Nal = N[C@@H](Cc1ccc2ccccc2c1)C(=O)O

B1: c2 (cyclo-((2-Nal)-Leu-Ser-(2-Nal)-Arg)) (peptide)
chain: cyclo([2Nal]LS[2Nal]R)
SMILES: CC(C)C[C@@H]1NC(=O)[C@H](Cc2ccc3ccccc3c2)NC(=O)[C@H](CCCNC(=N)N)NC(=O)[C@H](Cc2ccc3ccccc3c2)NC(=O)[C@H](CO)NC1=O
A word on the IC50: it is the concentration needed to halve the response being measured. High values mean weaker potency, low ones greater potency. B1: the IC50 came out at 56.5 µM.

The record behind these values is paper PMC12876990, “Targeting secreted PLA2 interactions with EGFR and vimentin to arrest prostate tumour growth” (Cell Death & Disease, 2025).
